What all share (experiment): two-hybrid
The target in experiment [1] is BD-SUD2_(core) (SUD2-N+M, K412 to S675 of SARS-CoV-2 Nsp3, fused to the DNA binding domain) (SARS-CoV-2).
For experiment [2], the target named is SUD2-N (K412 to E548 of SARS-CoV-2 Nsp3), two-hybrid bait (SARS-CoV-2).
Experiment [3] has as its target SUD2-M (I549 to S675 of SARS-CoV-2 Nsp3), two-hybrid bait (SARS-CoV-2).

This passage reports fold LacZ reporter induction against full-length SUD2 and LacZ reporter activity compared with SUD2-N+M results from publication PMC10127692.

For the substance “AD-Nsp5 (Nsp5 of SARS-CoV-2 fused to the activation domain) (from UniProt P0DTD1 3264-3569)”, the fold LacZ reporter induction against full-length SUD2 in experiment [1] was 2.1 fold.

In the case of “AD-Nsp5 (Nsp5 of SARS-CoV-2 fused to the activation domain) (from UniProt P0DTD1 3264-3569) (enzyme)”, the figures for the LacZ reporter activity compared with SUD2-N+M in experiment [2] and in experiment [3] were 47% and 86%, respectively.
